Results reported in publication PMC4156824 (Molecular cell, 2014).

B1: Mcm3 (Flag-tagged subunit of Mcm2-7) (natural protein, S. cerevisiae, UniProt P24279 1-971, looked up)
chain: MEGSTGFDGDATTFFAPDAVFGDRVRRFQEFLDTFTSYRDSVRSIQVYNSNNAANYNDDQDDADERDLLGDDDGDDLEKEKKAASSTSLNILPHRIIISLDDLREFDRSFWSGILVEPAYFIPPAEKALTDLADSMDDVPHPNASAVSSRHPWKLSFKGSFGAHALSPRTLTAQHLNKLVSVEGIVTKTSLVRPKLIRSVHYAAKTGRFHYRDYTDATTTLTTRIPTPAIYPTEDTEGNKLTTEYGYSTFIDHQRITVQEMPEMAPAGQLPRSIDVILDDDLVDKTKPGDRVNVVGVFKSLGAGGMNQSNSNTLIGFKTLILGNTVYPLHARSTGVAARQMLTDFDIRNINKLSKKKDIFDILSQSLAPSIYGHDHIKKAILLMLMGGVEKNLENGSHLRGDINILMVGDPSTAKSQLLRFVLNTASLAIATTGRGSSGVGLTAAVTTDRETGERRLEAGAMVLADRGVVCIDEFDKMTDVDRVAIHEVMEQQTVTIAKAGIHTTLNARCSVIAAANPVFGQYDVNRDPHQNIALPDSLLSRFDLLFVVTDDINEIRDRSISEHVLRTHRYLPPGYLEGEPVRERLNLSLAVGEDADINPEEHSNSGAGVENEGEDDEDHVFEKFNPLLQAGAKLAKNKGNYNGTEIPKLVTIPFLRKYVQYAKERVIPQLTQEAINVIVKNYTDLRNDDNTKKSPITARTLETLIRLATAHAKVRLSKTVNKVDAKVAANLLRFALLGEDIGNDIDEEESEYEEALSKRSPQKSPKKRQRVRQPASNSGSPIKSTPRRSTASSVNATPSSARRILRFQDDEQNAGEDDNDIMSPLPADEEAELQRRLQLGLRVSPRRREHLHAPEEGSSGPLTEVGTPRLPNVSSAGQDDEQQQSVISFDNVEPGTISTGRLSLISGIIARLMQTEIFEEESYPVASLFERINEELPEEEKFSAQEYLAGLKIMSDRNNLMVADDKVWRV

Assays:
[1] = biological target: Mcm6 (S. cerevisiae, UniProt P53091 1-1017); assay: co-IP
Mcm6, sequence (P53091 whole entry): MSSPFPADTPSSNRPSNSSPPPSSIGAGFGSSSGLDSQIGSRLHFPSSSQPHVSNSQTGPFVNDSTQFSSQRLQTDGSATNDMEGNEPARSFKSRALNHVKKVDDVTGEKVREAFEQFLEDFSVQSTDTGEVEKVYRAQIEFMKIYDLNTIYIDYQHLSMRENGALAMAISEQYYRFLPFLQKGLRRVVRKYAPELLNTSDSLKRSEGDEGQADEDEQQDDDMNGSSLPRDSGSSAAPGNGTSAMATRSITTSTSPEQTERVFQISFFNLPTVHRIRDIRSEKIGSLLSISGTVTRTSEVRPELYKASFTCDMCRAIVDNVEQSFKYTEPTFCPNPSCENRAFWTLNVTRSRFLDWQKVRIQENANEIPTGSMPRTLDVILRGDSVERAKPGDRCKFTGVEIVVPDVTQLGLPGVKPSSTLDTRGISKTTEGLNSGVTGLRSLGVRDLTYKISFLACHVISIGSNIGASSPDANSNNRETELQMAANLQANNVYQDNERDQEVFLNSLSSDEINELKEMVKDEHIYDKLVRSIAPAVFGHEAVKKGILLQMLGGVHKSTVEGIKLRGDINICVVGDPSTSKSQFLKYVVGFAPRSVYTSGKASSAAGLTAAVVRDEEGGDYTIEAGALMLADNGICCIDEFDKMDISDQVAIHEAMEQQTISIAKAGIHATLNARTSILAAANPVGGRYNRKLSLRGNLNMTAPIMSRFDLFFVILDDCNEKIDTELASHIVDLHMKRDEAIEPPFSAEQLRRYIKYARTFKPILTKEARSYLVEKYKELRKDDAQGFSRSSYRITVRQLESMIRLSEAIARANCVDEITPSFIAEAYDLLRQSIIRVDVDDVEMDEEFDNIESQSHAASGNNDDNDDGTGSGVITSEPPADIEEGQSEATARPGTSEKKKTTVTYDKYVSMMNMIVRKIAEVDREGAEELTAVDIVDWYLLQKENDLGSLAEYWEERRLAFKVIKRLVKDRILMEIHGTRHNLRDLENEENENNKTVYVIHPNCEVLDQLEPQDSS

[2] = biological target: B1; assay: co-IP

| Binder | binding result [1] | binding result [2] |
| --- | --- | --- |
| B1 | binds |  |
| Mcm2 (natural protein, S. cerevisiae, UniProt P29469 1-868, looked up) MSDNRRRRREEDDSDSENELPPSSPQQHFRGGMNPVSSPIGSPDMINPEGDDNEVDDVPDIDEVEEQMNEVDLMDDNMYEDYAADHNRDRYDPDQVDDREQQELSLSERRRIDAQLNERDRLLRNVAYIDDEDEEQEGAAQLDEMGLPVQRRRRRRQYEDLENSDDDLLSDMDIDPLREELTLESLSNVKANSYSEWITQPNVSRTIARELKSFLLEYTDETGRSVYGARIRTLGEMNSESLEVNYRHLAESKAILALFLAKCPEEMLKIFDLVAMEATELHYPDYARIHSEIHVRISDFPTIYSLRELRESNLSSLVRVTGVVTRRTGVFPQLKYVKFNCLKCGSILGPFFQDSNEEIRISFCTNCKSKGPFRVNGEKTVYRNYQRVTLQEAPGTVPPGRLPRHREVILLADLVDVSKPGEEVEVTGIYKNNYDGNLNAKNGFPVFATIIEANSIKRREGNTANEGEEGLDVFSWTEEEEREFRKISRDRGIIDKIISSMAPSIYGHRDIKTAVACSLFGGVPKNVNGKHSIRGDINVLLLGDPGTAKSQILKYVEKTAHRAVFATGQGASAVGLTASVRKDPITKEWTLEGGALVLADKGVCLIDEFDKMNDQDRTSIHEAMEQQSISISKAGIVTTLQARCSIIAAANPNGGRYNSTLPLAQNVSLTEPILSRFDILCVVRDLVDEEADERLATFVVDSHVRSHPENDEDREGEELKNNGESAIEQGEDEINEQLNARQRRLQRQRKKEEEISPIPQELLMKYIHYARTKIYPKLHQMDMDKVSRVYADLRRESISTGSFPITVRHLESILRIAESFAKMRLSEFVSSYDLDRAIKVVVDSFVDAQKVSVRRQLRRSFAIYTLGH |  | binds |
| Mcm7 (natural protein, S. cerevisiae, UniProt P38132 1-845, looked up) MSAALPSIQLPVDYNNLFNEITDFLVTFKQDTLSSDATRNENEDENLDAENIEQHLLEKGPKYMAMLQKVANRELNSVIIDLDDILQYQNEKFLQGTQADDLVSAIQQNANHFTELFCRAIDNNMPLPTKEIDYKDDVLDVILNQRRLRNERMLSDRTNEIRSENLMDTTMDPPSSMNDALREVVEDETELFPPNLTRRYFLYFKPLSQNCARRYRKKAISSKPLSVRQIKGDFLGQLITVRGIITRVSDVKPAVEVIAYTCDQCGYEVFQEVNSRTFTPLSECTSEECSQNQTKGQLFMSTRASKFSAFQECKIQELSQQVPVGHIPRSLNIHVNGTLVRSLSPGDIVDVTGIFLPAPYTGFKALKAGLLTETYLEAQFVRQHKKKFASFSLTSDVEERVMELITSGDVYNRLAKSIAPEIYGNLDVKKALLLLLVGGVDKRVGDGMKIRGDINVCLMGDPGVAKSQLLKAICKISPRGVYTTGKGSSGVGLTAAVMKDPVTDEMILEGGALVLADNGICCIDEFDKMDESDRTAIHEVMEQQTISISKAGINTTLNARTSILAAANPLYGRYNPRLSPLDNINLPAALLSRFDILFLMLDIPSRDDDEKLAEHVTYVHMHNKQPDLDFTPVEPSKMREYIAYAKTKRPVMSEAVNDYVVQAYIRLRQDSKREMDSKFSFGQATPRTLLGIIRLSQALAKLRLADMVDIDDVEEALRLVRVSKESLYQETNKSKEDESPTTKIFTIIKKMLQETGKNTLSYENIVKTVRLRGFTMLQLSNCIQEYSYLNVWHLINEGNTLKFVDDGTMDTDQEDSLVSTPKLAPQTTASANVSAQDSDIDLQDA |  | binds |
| Mcm4 (natural protein, S. cerevisiae, UniProt P30665 1-933, looked up) MSQQSSSPTKEDNNSSSPVVPNPDSVPPQLSSPALFYSSSSSQGDIYGRNNSQNLSQGEGNIRAAIGSSPLNFPSSSQRQNSDVFQSQGRQGRIRSSASASGRSRYHSDLRSDRALPTSSSSLGRNGQNRVHMRRNDIHTSDLSSPRRIVDFDTRSGVNTLDTSSSSAPPSEASEPLRIIWGTNVSIQECTTNFRNFLMSFKYKFRKILDEREEFINNTTDEELYYIKQLNEMRELGTSNLNLDARNLLAYKQTEDLYHQLLNYPQEVISIMDQTIKDCMVSLIVDNNLDYDLDEIETKFYKVRPYNVGSCKGMRELNPNDIDKLINLKGLVLRSTPVIPDMKVAFFKCNVCDHTMAVEIDRGVIQEPARCERIDCNEPNSMSLIHNRCSFADKQVIKLQETPDFVPDGQTPHSISLCVYDELVDSCRAGDRIEVTGTFRSIPIRANSRQRVLKSLYKTYVDVVHVKKVSDKRLDVDTSTIEQELMQNKVDHNEVEEVRQITDQDLAKIREVAAREDLYSLLARSIAPSIYELEDVKKGILLQLFGGTNKTFTKGGRYRGDINILLCGDPSTSKSQILQYVHKITPRGVYTSGKGSSAVGLTAYITRDVDTKQLVLESGALVLSDGGVCCIDEFDKMSDSTRSVLHEVMEQQTISIAKAGIITTLNARSSILASANPIGSRYNPNLPVTENIDLPPPLLSRFDLVYLVLDKVDEKNDRELAKHLTNLYLEDKPEHISQDDVLPVEFLTMYISYAKEHIHPIITEAAKTELVRAYVGMRKMGDDSRSDEKRITATTRQLESMIRLAEAHAKMKLKNVVELEDVQEAVRLIRSAIKDYATDPKTGKIDMNLVQTGKSVIQRKLQEDLSREIMNVLKDQASDSMSFNELIKQINEHSQDRVESSDIQEALSRLQQEDKVIVLGEGVRRSVRLNNRV |  | binds |
